Consider one substance from patent US20240293316.

Data set [1] relates to NorMMPD (norbornene monomer functionalized with the D-MMP peptide).
In data set [2] the test system is NorMMPL (norbornene monomer functionalized with the L-MMP peptide).
The subject of data set [3] is NorMMPR (norbornene monomer functionalized with the random peptide R-MMP).

Chain of MMP-9 (chain, as listed by the source): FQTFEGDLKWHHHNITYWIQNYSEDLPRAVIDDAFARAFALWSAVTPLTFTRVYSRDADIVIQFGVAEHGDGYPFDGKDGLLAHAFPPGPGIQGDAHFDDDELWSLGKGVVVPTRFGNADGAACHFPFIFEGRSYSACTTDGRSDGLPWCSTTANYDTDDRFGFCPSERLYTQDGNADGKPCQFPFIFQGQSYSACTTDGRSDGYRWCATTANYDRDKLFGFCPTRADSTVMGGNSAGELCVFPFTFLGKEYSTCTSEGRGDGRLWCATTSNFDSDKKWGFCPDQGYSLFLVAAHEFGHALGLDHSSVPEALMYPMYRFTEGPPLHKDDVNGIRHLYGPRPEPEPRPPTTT

As to MMP-9, the results for the “MMP-9 cleavage assay (HPLC after 24 hours of incubation with MMP-9 at 37° C.; 0.5 µM MMP-9 : 500 µM NorMMP)” value in data set [1], in data set [2] and in data set [3] were “remained intact”, “NorMMPL was completely cleaved” and “remained intact”, respectively.
